{"source": "patent US20250296984A1", "about": "“THERAPEUTIC AND DIAGNOSTIC AGENTS AND USES THEREOF” (priority 2022, published 2025)", "molecules": {"B1": {"name": "13-1C10-1C10: mouse hybridoma subclone antibody against US28 ECD3 Peptide-1 and -2; sequenced (antibody)", "heavy": "EVKLVESGGVLVKPGGSLKFSCAASGFTFSSHALSWVRQTPEKRLEWVASISSRGRTYYPDSVKGRFTVSRDNARNILYLQVSSLRSEDTAMYYCTRGGTHYSYGNGFDFWGQGTTLTVSSAKTTPPSVYPLAPGSAAQTNSMVTLGCLVKGYFPEPVTVTWNSGSLSSGVHTFPAVLQSDLYTLSSSVTVPSSTWPSETVTCNVAHPASSTKVDKKIVPRDCGCKPCICTVPEVSSVFIFPPKPKDVLTITLTPKVTCVVVDISKDDPEVQFSWFVDDVEVHTAQTQPREEQFNSTFRSVSELPIMHQDWLNGKEFKCRVNSAAFPAPIEKTISKTKGRPKAPQVYTIPPPKEQMAKDKVSLTCMITDFFPEDITVEWQWNGQPAENYKNTQPIMDTDGSYFIYSKLNVQKSNWEAGNTFTCSVLHEGLHNHHTEKSLSHSPGK", "light": "QIVLTQSPAIMSASPGEKVTMTCSVSSSVSYMHWYQQKSGTSPKRWIYDTSKLASGVPARFSGSGSGTSYSLTISTMEAEDAATYYCQQWSNNPPITFGAGTKLELKRADAAPTVSIFPPSSEQLTSGGASVVCFLNNFYPKDINVKWKIDGSERQNGVLNSWTDQDSKDSTYSMSSTLTLTKDEYERHNSYTCEATHKTSTSPIVKSFNRNEC"}, "B2": {"name": "14-1H3-1A10: mouse hybridoma subclone antibody against US28 ECD3 Peptide-1 and -2; sequenced (antibody)", "heavy": "B1 heavy with F29L", "light": "B1 light"}, "B3": {"name": "13-5G6-1D3 clone: antibody from hybridoma clone US28-13-5G6-1D3 (antibody)", "heavy": "EVKLVESGGGLVQPGGSLRLACATSGFTFTDYYMSWVRQPPGKALEWLGFIRSKANGYTTEYSASVKGRFTISRDNSQSILYLQMNTLRSEDSATYYCARDERRTAWLAYWGQGTLVTVSAAKTTPPSVYPLAPGSAAQTNSMVTLGCLVKGYFPEPVTVTWNSGSLSSGVHTFPAVLQSDLYTLSSSVTVPSSTWPSETVTCNVAHPASSTKVDKKIVPRDCGCKPCICTVPEVSSVFIFPPKPKDVLTITLTPKVTCVVVDISKDDPEVQFSWFVDDVEVHTAQTQPREEQFNSTFRSVSELPIMHQDWLNGKEFKCRVNSAAFPAPIEKTISKTKGRPKAPQVYTIPPPKEQMAKDKVSLTCMITDFFPEDITVEWQWNGQPAENYKNTQPIMDTDGSYFIYSKLNVQKSNWEAGNTFTCSVLHEGLHNHHTEKSLSHSPGK", "light": "DVLMTQTPLSLPVSLGDQASISCRSSQSIVHSNGNTYLDWYLQKPGQSPKLLIYKVSNRFSGVPDRFSGSGSGTDFTLKISRVEAEDLGVYYCFQGSHVPTWTFGGGTKLEIKRADAAPTVSIFPPSSEQLTSGGASVVCFLNNFYPKDINVKWKIDGSERQNGVLNSWTDQDSKDSTYSMSSTLTLTKDEYERHNSYTCEATHKTSTSPIVKSFNRNEC"}}, "key": {"[1]": {"system": "control CHO cells (US28 negative)", "assay": "FACS binding to US28 negative control CHO cells", "parameters": "species or system Chinese hamster", "settings": "Table 7A; (1:5) (200 μg/ml); secondary antibody background removed", "method": "(§1) Flowcytometry was used to analyze cell surface binding by the US28 antibodies. Upon cell harvest, adherent non-infected and US28 overexpressing or HCMV infected cells were washed three times with cell staining buffer (phosphate-buffered saline (PBS (Amresco, Cleveland, 44139, USA) added 0.5% BSA and 0.05% Sodium Azide (NaN3)). The cells were trypisinized and then resuspended in DMEM with 10% FBS to inhibit the action of trypsin. The cells were then pelleted at 400×g for 10 minutes and washed three times in cell staining buffer. Cell viability and cell concentration were measured by tryphan blue viability assay and a cell counter (Countess, Invitrogen, Carlsbad, CA 92008, USA). The cell suspension was adjusted to 1×10^6 cells/mL with ice-cold cell staining buffer. The cells were blocked in 1 ml 10% FBS or 1% BSA in PBS per 1×10^6 cells, vortexed briefly, and incubated for 10-30 minutes to eliminate non-specific staining. The cells were then stained with the respective antibodies and appropriate negative controls.\n(§2) In both cases (ECD1 and ECD3), the antibodies were added to the cells, vortexed and incubated on ice for 15 to 30 minutes up to overnight and washed twice with cell staining buffer to remove any unbound antibodies. In addition, the CMV Immediate Early Antigen (IE) Alexa488 Ab, MAB810X, 1:50 was included to verify HCMV infected cells in one of the experiments. Because it binds to an intracellular, HCMV encoded protein, it was added after permeabilizing the cells in 70% ethanol for 30 min on ice.\n(§3) 1:500-1:5000 in cell staining buffer of the appropriate fluorescent-conjugated appropriate secondary antibodies were added and incubated on ice for 15-20 min in the dark. The cells were washed three times to remove any unbound antibodies. The cells were then fixed with 0.5% paraformaldehyde (PFA) for 30 min on ice and resuspended in 200-500 μL cell staining buffer for final flow cytometric analysis using an Accuri C6 flow cytometry system (BD Biosciences, San Jose, CA 95131, USA). Data analyses were performed using FlowJo software v8.8 (Treestar Inc. Ashland, OR 97520, USA).\n(§4) Background levels were determined using the respective secondary antibodies (anti-mFc-FITC for the subclones, or anti-myc-PE for the VUN100 molecules) with CHO cells and CHO-US28 cells. Given that US28 is expressed on the cell surface, the cells were non-permeabilised for these experiments."}, "[2]": {"target": "T1, Peptide-2 […] (SEQ ID NO: 7), US28 ECD3 4D variant (Human cytomegalovirus, UniProt P69332)", "T1 construct": "made in house; host or cells: chemical synthesis", "assay": "ELISA, binding to Bio-Peptide-2", "parameters": "species or system HCMV", "settings": "4D variant peptide", "method": "Microtiter plate wells were coated with 100 μl of the solution containing: (i) Bio-Peptide-N; or (ii) Bio-Peptide-1 and Bio-Peptide-2; at a concentration of between 1-10 μg/ml in coating buffer, consisting of Na2CO3, 1.5 g and NaHCO3, 2.93 g in 1 L of distilled water in pH 9.6, and then incubated for 1-2 hours at room temperature. The plate was washed 3 times in wash buffer consisting of PBS containing 0.05% v/v Tween-20 and blotted with paper towels thereafter. 150 μl of blocking solution containing Phosphate buffered saline (PBS) containing 1% w/v BSA, was added to each well and the plate was incubated for 2 hours at 37° C. The wells were washed 4 times in wash buffer and blotted on paper towels after the last wash. 100 μl of antibody dilution was added to each well and the plate was incubated for 1 hour at 37° C. and thereafter washed 3 times in wash buffer. 100 μl enzyme-conjugated secondary antibody (appropriately diluted in wash buffer) was added to each well and the plate was incubated for 1 hour at 37° C. The wells were then again washed 3 times in wash buffer and blotted with paper towels after the last wash. […] The absorbance values were read immediately at the appropriate wavelength and the data analyzed by Cmax Plus, Molecular Devices, San Jose, CA 95134, USA, […]"}, "[3]": {"target": "T2, HCMV US28 (strain DB) on CHO-US28-A1 cells (Human cytomegalovirus, UniProt P69332, D170N/D19A)", "T2 construct": "expressed in transfected cells; host or cells: CHO-K1 (vector pCDH-EF1a-MCS)", "assay": "FACS surface binding to CHO-US28-A1 cells", "settings": "CHO-US28-A1 cells compared with US28 negative control CHO cells", "method": "Plasmid construction was performed to create a US28-overexpressing cell line. The US28 sequence, identical to HCMV DB strain (Acc. Number: KT959235; SEQ ID No. 5 of this application), fused to a 6His tag at its C terminal part, was inserted into the pCDH-EF1a-MCS vector (Creative Biolabs, Shirley, NY 11967, USA). The plasmid construct was transfected to CHO-K1 cell line. The cells were collected 48 hours after transfection. The cell line was named as CHO-US28-A1-6His and its protein sequence (SEQ ID NO: 47) is the following:\nas §1\nThe primary antibodies used were I) 13-5G6-1D3 (50 μg/ml) as a positive control; II) Monovalent and Bivalent VUN100 ScFvs 1:1 (50 μg/ml); III) test antibodies for the specified subclones (1:5).\nThe primary antibodies used were I) 13-5G6-1D3 1:50 to 50 μg/ml; and II) Commercial US28 polyclonal antibody (50 μg/ml), III) Monovalent and Bivalent VUN100 ScFvs (50 μg/ml) and for certain experiments, the appropriate isotype controls were included.\nas §2, §3, §4"}}, "note": "Where a chain is given by its changes, count along the chain named. Marks after values point to notes of the source that are not given here."}
{"molecule": "B1", "values": [{"measurement": "Percentage of binding to CHO cells", "setting": "[1]", "value": 0.62, "unit": "%"}, {"measurement": "Absorbance values, Peptide 2", "setting": "[2]", "value": 3.029}]}
{"molecule": "B2", "values": [{"measurement": "Percentage of binding to CHO cells", "setting": "[1]", "value": 0.58, "unit": "%"}, {"measurement": "Absorbance values, Peptide 2", "setting": "[2]", "value": 2.842}]}
{"molecule": "B3", "values": [{"measurement": "Binding Specificity (ratio of surface binding)", "setting": "[3]", "value": "15.2*"}]}
